US20200299373A1
Several values for one entry are separate records, joined by “and”; a condition that tells them apart may be missing. Identical values can stand only once.

Assays:
[1] = molecular target: recombinant human FAM19A5 protein (His-tagged) (human) (UniProt Q7Z5A7); experiment: ELISA on N'-Term His FAM19A5, fit of the titration; R2 printed 0.8823
[2] = molecular target: recombinant human FAM19A5 protein (His-tagged) (human) (UniProt Q7Z5A7); experiment: ELISA on N'-Term His FAM19A5, fit of the titration (OD 492 nm); R2 printed 0.8823
[3] = molecular target: recombinant human FAM19A5 protein (His-tagged) (human) (UniProt Q7Z5A7); experiment: two-site sandwich ELISA; capture antibody 3-2; biotinylated detection antibody 13B4; antigen in ng/mL
[4] = molecular target: recombinant human FAM19A5 protein (His-tagged) (human) (UniProt Q7Z5A7); experiment: two-site sandwich ELISA; capture antibody 1-65; biotinylated detection antibody 13B4; antigen in ng/mL
[5] = molecular target: recombinant human FAM19A5 protein (His-tagged) (human) (UniProt Q7Z5A7); experiment: two-site sandwich ELISA; capture antibody 2-13; biotinylated detection antibody 13B4; antigen in ng/mL
[6] = molecular target: recombinant human FAM19A5 protein (His-tagged) (human) (UniProt Q7Z5A7); experiment: two-site sandwich ELISA; capture antibody P2-A03; biotinylated detection antibody 13B4; antigen in ng/mL
[7] = molecular target: recombinant human FAM19A5 protein (His-tagged) (human) (UniProt Q7Z5A7); experiment: two-site sandwich ELISA; capture antibody P2-F11; biotinylated detection antibody 13B4; antigen in ng/mL
[8] = molecular target: recombinant human FAM19A5 protein (His-tagged) (human) (UniProt Q7Z5A7); experiment: two-site sandwich ELISA; capture antibody 3-2; S/N = O.D. at 10 ng/mL antigen / O.D. at 0 ng/mL; O.D. in column 0 printed 0.13
[9] = molecular target: recombinant human FAM19A5 protein (His-tagged) (human) (UniProt Q7Z5A7); experiment: two-site sandwich ELISA; capture antibody 1-65; S/N = O.D. at 10 ng/mL antigen / O.D. at 0 ng/mL; O.D. in column 0 printed 0.12
[10] = molecular target: recombinant human FAM19A5 protein (His-tagged) (human) (UniProt Q7Z5A7); experiment: two-site sandwich ELISA; capture antibody 2-13; S/N = O.D. at 10 ng/mL antigen / O.D. at 0 ng/mL; O.D. in column 0 printed 0.21
[11] = molecular target: recombinant human FAM19A5 protein (His-tagged) (human) (UniProt Q7Z5A7); experiment: two-site sandwich ELISA; capture antibody P2-A03; S/N = O.D. at 10 ng/mL antigen / O.D. at 0 ng/mL; O.D. in column 0 printed 0.14
[12] = molecular target: recombinant human FAM19A5 protein (His-tagged) (human) (UniProt Q7Z5A7); experiment: two-site sandwich ELISA; capture antibody P2-F11; S/N = O.D. at 10 ng/mL antigen / O.D. at 0 ng/mL; O.D. in column 0 printed 0.15
[13] = molecular target: recombinant human FAM19A5 protein (His-tagged) (human) (UniProt Q7Z5A7); experiment: ELISA on coated FAM19A5, as in Example 6
[14] = molecular target: recombinant human FAM19A5 protein (His-tagged) (human) (UniProt Q7Z5A7); experiment: ELISA on N'-Term His FAM19A5, fit of the titration (OD 492 nm); R2 printed 0.8806
[15] = molecular target: recombinant human FAM19A5 protein (His-tagged) (human) (UniProt Q7Z5A7); experiment: ELISA, His-FAM19A5 (positive control) coated on the plate, absorbance at 492 nm
[16] = molecular target: recombinant human FAM19A5 protein (His-tagged) (human) (UniProt Q7Z5A7); experiment: two-site sandwich ELISA; capture antibody 3-2; biotinylated detection antibody 1-65; antigen in ng/mL
[17] = molecular target: recombinant human FAM19A5 protein (His-tagged) (human) (UniProt Q7Z5A7); experiment: two-site sandwich ELISA; capture antibody 13B4; biotinylated detection antibody 1-65; antigen in ng/mL
[18] = molecular target: recombinant human FAM19A5 protein (His-tagged) (human) (UniProt Q7Z5A7); experiment: two-site sandwich ELISA; capture antibody 2-13; biotinylated detection antibody 1-65; antigen in ng/mL
[19] = molecular target: recombinant human FAM19A5 protein (His-tagged) (human) (UniProt Q7Z5A7); experiment: two-site sandwich ELISA; capture antibody P2-A03; biotinylated detection antibody 1-65; antigen in ng/mL
[20] = molecular target: recombinant human FAM19A5 protein (His-tagged) (human) (UniProt Q7Z5A7); experiment: two-site sandwich ELISA; capture antibody P2-F11; biotinylated detection antibody 1-65; antigen in ng/mL
[21] = molecular target: recombinant human FAM19A5 protein (His-tagged) (human) (UniProt Q7Z5A7); experiment: two-site sandwich ELISA; capture antibody 3-2; S/N = O.D. at 10 ng/mL antigen / O.D. at 0 ng/mL; O.D. in column 0 printed 0.28
[22] = molecular target: recombinant human FAM19A5 protein (His-tagged) (human) (UniProt Q7Z5A7); experiment: two-site sandwich ELISA; capture antibody 13B4; S/N = O.D. at 10 ng/mL antigen / O.D. at 0 ng/mL; O.D. in column 0 printed 0.15
[23] = molecular target: recombinant human FAM19A5 protein (His-tagged) (human) (UniProt Q7Z5A7); experiment: two-site sandwich ELISA; capture antibody 2-13; S/N = O.D. at 10 ng/mL antigen / O.D. at 0 ng/mL; O.D. in column 0 printed 0.55
[24] = molecular target: recombinant human FAM19A5 protein (His-tagged) (human) (UniProt Q7Z5A7); experiment: two-site sandwich ELISA; capture antibody P2-A03; S/N = O.D. at 10 ng/mL antigen / O.D. at 0 ng/mL; O.D. in column 0 printed 0.1
[25] = molecular target: recombinant human FAM19A5 protein (His-tagged) (human) (UniProt Q7Z5A7); experiment: two-site sandwich ELISA; capture antibody P2-F11; S/N = O.D. at 10 ng/mL antigen / O.D. at 0 ng/mL; O.D. in column 0 printed 0.19
[26] = molecular target: T1, FAM19A5 epitope fragment F1 conjugated to BSA (human); experiment: ELISA, antigen coated on the plate, antibody in solution, absorbance at 492 nm; conditions: remark: other sources report otherwise
T1 chain: QLAAGTCEIVTLDR

[27] = molecular target: T2, FAM19A5 epitope fragment F3 conjugated to BSA (human); experiment: as above; conditions: remark: other sources report otherwise
T2 chain: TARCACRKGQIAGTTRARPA

[28] = molecular target: T3, FAM19A5 epitope fragment F4 conjugated to BSA (human); experiment: as above; conditions: remark: other sources report otherwise
T3 chain: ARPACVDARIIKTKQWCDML

[29] = molecular target: T4, FAM19A5 epitope fragment F5 conjugated to BSA (human); experiment: as above; conditions: remark: other sources report otherwise
T4 chain: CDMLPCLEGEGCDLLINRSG

[30] = molecular target: T5, FAM19A5 epitope fragment F6 conjugated to BSA (human); experiment: as above; conditions: remark: other sources report otherwise
T5 chain: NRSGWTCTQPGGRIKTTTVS

[31] = molecular target: recombinant human FAM19A5 protein (His-tagged) (human) (UniProt Q7Z5A7); experiment: ELISA on N'-Term His FAM19A5, fit of the titration; R2 printed 0.9329
[32] = molecular target: recombinant human FAM19A5 protein (His-tagged) (human) (UniProt Q7Z5A7); experiment: ELISA on N'-Term His FAM19A5, fit of the titration (OD 492 nm); R2 printed 0.9329

B1: anti-FAM19A5 antibody 13B4 (antibody, V domains shown)
VH: QVQLQESGPGLVKPSGTLSLNCAVSGGSISSSNWWSWVRQPPGKGLEWIGEIYHGGTTNYNPSLKGRVTMSVDKTKNQFSLRLSSVTAVDTAVYYCARWQLVGGLDVWGQGTTVTVSS
VL: SYELTQPLSVSVSPGQTASITCSGDKLGNVYASWYQQKPGQSPTLVIYQDNKRPSGIPERFSGSNSGKTATLTISGTQALDEADYYCQAWDSSTAVFGGGTKLTVLR
modifications: Biotinylated when used as detection antibody in FIG. 6B.
Kd [1]: 1.06 nM | Bmax [2]: 2.84 | O.D., antigen 100 [3]: 1.7 | O.D., antigen column 10 [3]: 0.3 | O.D., antigen 100 [4]: 0.12 | O.D., antigen column 10 [4]: 0.12 | O.D., antigen 100 [5]: 1.92 | O.D., antigen column 10 [5]: 0.65 | O.D., antigen 100 [6]: 0.15 | O.D., antigen column 10 [6]: 0.16 | O.D., antigen 100 [7]: 0.14 | O.D., antigen column 10 [7]: 0.16 | S/N [8]: 2.3 | S/N [9]: 1 | S/N [10]: 3.1 | S/N [11]: 1.1 | S/N [12]: 1.1

B2: anti-FAM19A5 antibody 1-65 (antibody, V domains shown)
VH: AVTLDESGGGLQTPGGALSLVCKASGFTFSSYQMGWVRQAPGKGLEWVGVINKSGSDTSYGSAVKGRATISRDNGQSTVRLQLNNLRAEDTGTYFCAKGSASYITAATIDAWGHGTEVIVSS
VL: ALTQPSSVSANPGETVKITCSGGGSSGYGYGWYQQKSPSSAPLTVIYWNDKRPSDIPSRFSGSKSGSTHTLTITGVQAEDEAVYFCGNDDYSSDSGYVGVFGAGTTLTVL
Kd [13]: 0.1 nM | Bmax [14]: 3.26 | O.D. [15]: 3.95 | O.D., antigen 100 [16]: 1.98 | O.D., antigen column 10 [16]: 1.83 | O.D., antigen 100 [17]: 0.19 | O.D., antigen column 10 [17]: 0.15 | O.D., antigen 100 [18]: 1.73 | O.D., antigen column 10 [18]: 1.81 | O.D., antigen 100 [19]: 0.16 | O.D., antigen column 10 [19]: 0.11 | O.D., antigen 100 [20]: 1.61 | O.D., antigen column 10 [20]: 0.33 | S/N [21]: 6.5 | S/N [22]: 1 | S/N [23]: 3.3 | S/N [24]: 1.1 | S/N [25]: 1.7

B3: anti-FAM19A5 antibody 3-2 (antibody, V domains shown)
VH: not shown
VL: ALTQPSSVSANPGETVKITCSGGGSYAGSYYYGWYQQKAPGSAPVTLIYESNKRPSDIPSRFSGSTSGSTATLTITGVQADDEAIYYCGSWDSSNGGIFGAGTTLTVL
modifications: here or on the partner: conjugated to BSA
O.D. [26]: 0.06 and 0.05 | O.D. [27]: 0.06 and 0.05 | O.D. [28]: 0.05 | O.D. [29]: 0.05 | O.D. [30]: 0.05

B4: 13F7 (antibody, V domains shown)
VH: QVQLQEWGAGLLKPSETLSLTCAINAESFNGYSWTWIRQTPGKGLEWIGEISHFGSANYNPSLKSRATISADKSKNQFSLKLTSVTAVDTAVYYCARALRGTYSRFYYGMDVWGQGTTVTVSS
VL: DIVMTQTPLSLPVAPGEPASISCRSSQSLLHSNGYNYLDWYVQKPGQPPQLLIYLGSNRASGVPDRFSGSGSGTDFTLKISRVEAEDVGVYYCMQARQTPLTFGGGTKVEIKR
Kd [31]: 2.77 nM | Bmax [32]: 3.04
